# In patent publication US20250347697A1, “Accurate Method for Generating a Phase Diagram of a Polymer” (MAX-PLANCK-GESELLSCHAFT ZUR FÖRDERUNG DER WISSENSCHAFTEN …, priority 2022, published 2025):
# T1: FUS (Homo sapiens, UniProt P35637)
# T1 construct: made in house; host or cells: SF9-ESF insect cells (baculovirus) for the unlabelled FUS
# T1 sequence (P35637 1-526): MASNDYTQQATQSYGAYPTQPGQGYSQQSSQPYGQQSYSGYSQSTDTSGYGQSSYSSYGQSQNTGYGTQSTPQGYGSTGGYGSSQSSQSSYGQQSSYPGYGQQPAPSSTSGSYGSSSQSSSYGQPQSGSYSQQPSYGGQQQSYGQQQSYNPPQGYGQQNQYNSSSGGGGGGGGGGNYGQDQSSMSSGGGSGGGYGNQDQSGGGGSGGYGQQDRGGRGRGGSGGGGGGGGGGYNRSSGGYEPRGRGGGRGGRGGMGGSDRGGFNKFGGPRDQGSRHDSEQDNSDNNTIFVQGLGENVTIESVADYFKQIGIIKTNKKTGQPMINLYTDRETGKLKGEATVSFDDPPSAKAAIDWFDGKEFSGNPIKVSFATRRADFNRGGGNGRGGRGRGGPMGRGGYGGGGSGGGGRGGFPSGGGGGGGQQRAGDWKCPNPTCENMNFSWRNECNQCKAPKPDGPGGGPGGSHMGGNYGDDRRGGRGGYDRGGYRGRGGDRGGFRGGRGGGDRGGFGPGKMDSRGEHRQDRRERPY
# B1: poly(A) RNA: Poly(A) RNA (SEQ ID No: 3) added to FUS-GFP at a fixed molar ratio (nucleic acid)
# chain: AAAAAAAAAAAAAAAAAAAAAAAAAAAAAAAAAAAAAAAAAAAAAAAAAAAAAAAAAAAAAAAAAAAAAAAAAAAAAAAAAAAAAAAAAAAAAAAAAAAAAAAAAAAAAAAAAAAAAAAAAAAAAAAAAAAAAAAAAAAAAAAAAAAAAAAAAAAAAAAAAAAAAAAAAAAAAAAAAAAAAAAAAAAAAAAAAAAAAAAAAAAAAAAAAAAAAAAAAAAAAAAAAAAAAAAAAAAAAAAAAAAAAAAAAA
# modifications: misc_feature 1..250 Poly(A) RNA
# B2: PGL-3: protein component of P granules in the germline of C. elegans; spiked with 5% PGL-3::GFP (protein, UniProt G5EBV6 1-693, looked up)
# Guanyl-specific ribonuclease …: MEANKRQIVEVDGIKSYFFPHLAHYLASNDELLVNNIAQANKLAAFVLGATDKRPSNEEIAEMILPNDSSAYVLAAGMDVCLILGDDFRPKFDSGAEKLSQLGQAHDLAPIIDDEKKISMLARKTKLKKSNDAKILQVLLKVLGAEEAEEKFVELSELSSALDLDFDVYVLAKLLGFASEELQEEIEIIRDNVTDAFEACKPLLKKLMIEGPKIDSVDPFTQLLLTPQEESIEKAVSHIVARFEEASAVEDDESLVLKSQLGYQLIFLVVRSLADGKRDASRTIQSLMPSSVRAEVFPGLQRSVFKSAVFLASHIIQVFLGSMKSFEDWAFVGLAEDLESTWRRRAIAELLKKFRISVLEQCFSQPIPLLPQSELNNETVIENVNNALQFALWITEFYGSESEKKSLNQLQFLSPKSKNLLVDSFKKFAQGLDSKDHVNRIIESLEKSSSSEPSATAKQTTTSNGPTTVSTAAQVVTVEKMPFSRQTIPCEGTDLANVLNSAKIIGESVTVAAHDVIPEKLNAEKNDNTPSTASPVQFSSDGWDSPTKSVALPPKISTLEEEQEEDTTITKVSPQPQERTGTAWGSGDATPVPLATPVNEYKVSGFGAAPVASGFGQFASSNGTSGRGSYGGGRGGDRGGRGAYGGDRGRGGSGDGSRGYRGGDRGGRGSYGEGSRGYQGGRAGFFGGSRGGS
# modifications: spiked with 5% PGL-3::GFP
# notes: protein component of P granules in the germline of C. elegans; spiked with 5% PGL-3::GFP
# Experiments:
# Assay type in all cases: physicochemical
# FUS = target: T1, FUS; assay: Effect of a small molecule drug on the phase diagram (binodal) of FUS, inPhase method; conditions: compared to untreated control (DMSO); temperature phase diagram, FIG. 9
# From the text: • 1. Measure the protein concentration of the stock solutions. The stock solutions can be unlabelled, a mix of labelled and unlabelled or fully labelled protein. Solutions containing only unlabelled protein will be detected using brightfield (or phase-contrast, DIC, etc.) while the mixes that contain labelled protein can be also detected with fluorescence means. • 2. Make a titration series of the protein solution. • 3. Trigger phase separation of the protein samples. Phase separation can be triggered for example by a change in salt, pH or temperature. • 4. Immediately after triggering phase separation, encapsulate in a water-in-oil system (e.g. PicoSurf oil (Sphere Fluidics, UK)). • 5. Centrifugation after encapsulation is optional but helps in the segmentation of the condensates. This is because the centrifugation coarsens the condensates. • 6. Load the titration series into chambers for microscopy imaging. […] Now the ratio condensate over emulsion droplet volume which is the volume fraction can be determined. In case of fluorescently labelled proteins the determination of the condensate volume can be complemented by fluorescence microscopy. • 8. Perform the image and segmentation analysis and fit the measured volume-fractions to a linear regression over the protein concentrations. • 9. […]
# FUS-GFP = target: T2, FUS-GFP (Homo sapiens, UniProt P35637); assay: Effect of RNA on protein phase separation (poly(A) RNA : FUS-GFP at fixed molar ratio); conditions: titration of total protein concentration at constant poly(A) RNA to protein ratio, FIG. 16
# T2 construct: made in house; the listing says 'purified from BAC construct')
# Method: FUS-GFP containing samples were prepared as described in Example 1. Phase separation was triggered by simultaneously lowering the salt concentration of the sample and adding the Poly(A) RNA in an amount to maintain a fixed molar ratio of Poly(A):FUS-GFP. The volume fraction of the condensed phase was determined as described in Example 1 and cdil and ccon, were determined, wherein ccon represents an apparent concentration containing both Poly(A) (SEQ ID No: 3) and FUS-GFP concentration. The concentration of the single components of the sample can be resolved by the knowledge of the molar ratio of RNA to protein in the condensed phase (FIG. 16).
# [1] = Partition factor derived from inPhase phase diagrams (water-in-oil emulsions); conditions: range over the tested temperatures and salt (KCl) concentrations, FIG. 15a
# From the text: Partition factor and comparison to fluorescence-based quantification. The partition factor (PF) is often used in condensate research to characterise the up-concentration of protein in the condensed phase. It can be defined by the ratio of the condensed-over dilute-phase concentration (PF=ccon/cdil). In the condensate field it is common to determine the partition factor by comparing fluorescence intensity inside the condensate against the intensity in the dilute phase. In contrast, our method allows us to directly determine the partition factor by using the presented phase diagrams (FIG. 13 and FIG. 14).
# • 1. Measure the protein concentration of the stock solutions. The stock solutions can be unlabelled, a mix of labelled and unlabelled or fully labelled protein. Solutions containing only unlabelled protein will be detected using brightfield (or phase-contrast, DIC, etc.) while the mixes that contain labelled protein can be also detected with fluorescence means. • 2. […] Now the ratio condensate over emulsion droplet volume which is the volume fraction can be determined. In case of fluorescently labelled proteins the determination of the condensate volume can be complemented by fluorescence microscopy. • 8. Perform the image and segmentation analysis and fit the measured volume-fractions to a linear regression over the protein concentrations. • 9. […]
molecule,measurement,setting,value
NC(=O)CCCCC1CCSS1 (stereo not drawn) [Lipoamide],effect on the phase behavior of FUS (condensed phase branch of the binodal),FUS,reduced amount of conformational changes at higher temperatures
B1,effect of increasing the RNA to protein ratio on cdil,FUS-GFP,reduces cdil
B2,partition factor (PF=ccon/cdil),[1],10^1-10^3
